For 1 molecule, EC50, PD-1/PD-L1 blockade (% PDL1 Blockade, NFAT-luciferase reporter) results are on record in patent US20240002514A1.

In the assay the target is human PD-L1 expressed on the cell surface (CHO cells expressing human PD-L1; Promega CS187103 / 187103 cells) (human) (UniProt Q9NZQ7).
Sequence of human PD-L1 expressed on the cell surface (CHO cells expressing human PD-L1; Promega CS187103 / 187103 cells) (human) (Q9NZQ7 19-290): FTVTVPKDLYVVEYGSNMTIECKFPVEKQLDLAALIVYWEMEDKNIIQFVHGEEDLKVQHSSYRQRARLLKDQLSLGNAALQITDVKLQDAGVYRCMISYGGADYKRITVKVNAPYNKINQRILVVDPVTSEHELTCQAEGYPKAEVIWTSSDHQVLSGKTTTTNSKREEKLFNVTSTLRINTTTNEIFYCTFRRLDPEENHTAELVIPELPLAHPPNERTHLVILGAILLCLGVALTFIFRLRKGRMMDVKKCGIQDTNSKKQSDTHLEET

B1: 29E.2A3 (antibody, from another filing, V domains shown)
VH: EVQLQQSGPELVKPGASVKMSCKASGYTFTSYVMHWVKQKPGQGLEWIGYVNPFNDGTKYNEMFKGKATLTSDKSSSTAYMELSSLTSEDSAVYYCARQAWGYPWGQGTLVTVSA
VL: DIVLTQSPASLAVSLGQRATISCRATESVEYYGTSLVQWYQQKPGQPPKLLIYAASSVDSGVPARFSGSGSGTDFSLTIHPVEEDDIAMYFCQQSRRVPYTFGGGTKLEIK
B1 displayed an EC50, PD-1/PD-L1 blockade (% PDL1 Blockade, NFAT-luciferase reporter) of 0.17 nM.
